# Results as given in article PMC545490, “Mapping and mutation of the conserved DNA polymerase interaction motif (DPIM) located in the C-terminal domain of fission yeast DNA polymerase δ subunit Cdc27” (BMC Molecular Biology, 2004).
# T1: LexA-Pol1-278-527 (S. pombe, UniProt P28040 278-527)
# T1 construct: Pol1, catalytic subunit of DNA polymerase α, S. pombe, amino acids 278–527; source: yeast two-hybrid fusion (pBTM116, S. cerevisiae CTY10-5d)
# T1 sequence (looked up): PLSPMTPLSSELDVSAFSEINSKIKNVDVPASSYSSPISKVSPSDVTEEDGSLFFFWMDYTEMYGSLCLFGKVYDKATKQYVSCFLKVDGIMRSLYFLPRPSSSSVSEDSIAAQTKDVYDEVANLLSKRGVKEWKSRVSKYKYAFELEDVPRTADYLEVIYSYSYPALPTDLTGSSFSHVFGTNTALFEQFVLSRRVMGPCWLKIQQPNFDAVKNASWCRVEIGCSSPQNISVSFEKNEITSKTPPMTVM
# B1: Gal4-Cdc27-273-352-P7 (domain or fragment, S. pombe, UniProt P30261 273-352, looked up)
# chain: TEAKSAAPDEPQEIIKSVSGGKRRGKRKVKKYATTKDEEGFLVTKEEEVWESFSAAANISTGTSNVVRNKPTTVNIATKK
# notes: positions worked out from oligonucleotides CDC27-P6F and CDC27-P7F and the printed DEE 309–311; also called Cdc27-P7; source: yeast two-hybrid fusion (pACT2, S. cerevisiae CTY10-5d)
# Target: T1, LexA-Pol1-278-527
# Test: two-hybrid; Gal4 AD prey (pACT2) and LexA bait (pBTM116) in S. cerevisiae lexA op-lacZ strain CTY10-5d; β-galactosidase activity in Miller units
# Settings: partners not purified
binder,measurement,value
B1,"strength of the interaction, percent of the wild-type value",~10 % of wild-type
